Experimental data published in the supplement of paper PMC7125110.
± gives the standard error. Variants at the floor of the assay were thinned out.

B1: glmS ribozyme (parent)
chain: AUAAAAGCGCCAGAACUACAGAAAUGUAGUUGACGAGGAGGAGGUUUAUCGAAUUUUCGGCGGAUGCCUCCAAA

Columns and labels:
Settings in all cases: with glucosamine-6-phosphate
[1] = variants of: B1; test: self-cleavage kobs at 40 uM GlcN6P; higher = faster cleavage; RNA array
Outline: (§1)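 Barcoded glmS ribozyme variants on sequenced MiSeq chips were transcribed in situ by E. coli RNA polymerase and tracked through a hybridised Cy3 probe at 37 °C. Glucosamine-6-phosphate (40 μM to 10 mM) in HEPES/KCl/Mg(OAc)2 buffer was flowed in, and tiles were imaged over ~14 h. Signals were normalised to baseline and to non-cleaving reference variants; per-tile medians were fit to one- or two-exponential decays to give kobs. kcat and KM came from weighted Michaelis–Menten fits across concentrations.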

[2] = variants of: B1; test: self-cleavage kobs at 160 uM GlcN6P; higher = faster cleavage; RNA array
Outline: as §1

[3] = variants of: B1; test: self-cleavage kobs at 640 uM GlcN6P; higher = faster cleavage; RNA array
Outline: as §1

[4] = variants of: B1; test: self-cleavage kobs at 10000 uM GlcN6P; higher = faster cleavage; RNA array
Outline: as §1

[5] = variants of: B1; test: self-cleavage kobs at 2500 uM GlcN6P; higher = faster cleavage; RNA array
Outline: as §1

| Variant | self-cleavage kobs at 40 uM GlcN6P [1] [s⁻¹] | self-cleavage kobs at 160 uM GlcN6P [2] [s⁻¹] | self-cleavage kobs at 640 uM GlcN6P [3] [s⁻¹] | self-cleavage kobs at 10000 uM GlcN6P [4] [s⁻¹] | self-cleavage kobs at 2500 uM GlcN6P [5] [s⁻¹] |
| --- | --- | --- | --- | --- | --- |
| C10U G37U U45A | < 1e-05 | – | – | – | – |
| G7C G51A | < 1e-05 | < 1e-05 | < 1e-05 | < 1e-05 | – |
| U30G G38U A39U G66A | < 1e-05 | – | – | < 1e-05 | – |
| A12U C50G G51C | < 1e-05 | – | – | – | – |
| U57C G62U U65C | < 1e-05 | – | – | < 1e-05 | – |
| A14U G38U G63U | < 1e-05 | – | – | < 1e-05 | – |
| C16A U31A G32U G40C G41A C67U C68U | < 1e-05 | – | – | < 1e-05 | – |
| A42G G66A | 0.000416 ± 6.5e-05 | 0.000862 ± 0.0002 | 0.00611 ± 0.00079 | 0.0267 ± 0.0068 | 0.00984 ± 0.0018 |
| G37C U45G | < 1e-05 | < 1e-05 | < 1e-05 | – | – |
| A6G A14G A39C | < 1e-05 | – | – | 0.000209 ± 4.5e-05 | 9.9e-05 ± 2.3e-05 |
| G9C U49A | < 1e-05 | – | < 1e-05 | < 1e-05 | < 1e-05 |
| A33G G40C U56G | < 1e-05 | – | – | – | – |
| G9U U30C A36C | < 1e-05 | – | < 1e-05 | – | < 1e-05 |
| G9C C10U G44A U54A C71G | < 1e-05 | – | – | – | – |
| U31G U55A | 0.000446 ± 7.1e-05 | 0.00128 ± 0.00045 | 0.00221 ± 0.00041 | 0.0118 ± 0.0023 | 0.00465 ± 0.0011 |
| G7C A15G A36U | < 1e-05 | – | < 1e-05 | < 1e-05 | – |
| A6G C71G | < 1e-05 | < 1e-05 | < 1e-05 | – | < 1e-05 |
| U46G C70U | 0.000256 ± 2.3e-05 | 0.000556 ± 8.8e-05 | 0.00125 ± 0.0002 | 0.00705 ± 0.00083 | 0.00235 ± 0.00055 |
| C16U U47C | 7.47e-05 ± 1.5e-05 | – | – | 0.00228 ± 0.00034 | 0.00165 ± 0.00046 |
| C8G G29U | < 1e-05 | < 1e-05 | < 1e-05 | < 1e-05 | < 1e-05 |
| A33U G60A | < 1e-05 | < 1e-05 | < 1e-05 | – | – |
| G41C G63C | < 1e-05 | – | < 1e-05 | < 1e-05 | < 1e-05 |
| G35A U45C C71U | < 1e-05 | – | – | < 1e-05 | < 1e-05 |

| Variant | self-cleavage kobs at 40 uM GlcN6P [1] [s⁻¹] | self-cleavage kobs at 160 uM GlcN6P [2] [s⁻¹] | self-cleavage kobs at 640 uM GlcN6P [3] [s⁻¹] | self-cleavage kobs at 10000 uM GlcN6P [4] [s⁻¹] | self-cleavage kobs at 2500 uM GlcN6P [5] [s⁻¹] |
| --- | --- | --- | --- | --- | --- |
| G35U C61A | < 1e-05 | – | < 1e-05 | < 1e-05 | < 1e-05 |
| A15U G29C A48G C71A | < 1e-05 | – | – | – | – |
| C10A G32A U47A | < 1e-05 | – | – | – | – |
| A48U C50U | < 1e-05 | < 1e-05 | < 1e-05 | < 1e-05 | < 1e-05 |
| U47A U57G C58U C70U | < 1e-05 | – | – | – | – |
| G37U A39U U45G G51A G59A | < 1e-05 | – | – | – | – |
| U31C C68A | < 1e-05 | – | – | < 1e-05 | – |
| A33U C34U G60C C68U | < 1e-05 | – | – | – | < 1e-05 |
| C11G G62A | < 1e-05 | – | – | – | – |
| A6U G59C C71G | < 1e-05 | < 1e-05 | < 1e-05 | < 1e-05 | < 1e-05 |
| G35C A42U | < 1e-05 | < 1e-05 | < 1e-05 | – | < 1e-05 |
| A15G G41U | 0.000204 ± 2.3e-05 | 0.000282 ± 4.5e-05 | 0.000507 ± 8.7e-05 | – | 0.00155 ± 0.00029 |
| U49C C50A | < 1e-05 | < 1e-05 | – | – | – |
| A15U G62C | < 1e-05 | – | < 1e-05 | < 1e-05 | – |
| G43C A52C U54G | < 1e-05 | – | < 1e-05 | < 1e-05 | – |
| C34U G41A C68A | < 1e-05 | – | – | < 1e-05 | – |
| U46A C50G A53U C70G | 0.000147 ± 6.3e-05 | – | – | 0.000126 ± 3.8e-05 | – |
| U49G C61U | < 1e-05 | < 1e-05 | – | – | – |
| C16A U49C C71G | < 1e-05 | – | – | < 1e-05 | – |
| C16U G40U C68G | < 1e-05 | < 1e-05 | – | < 1e-05 | – |
| C8U C68A | < 1e-05 | – | < 1e-05 | – | < 1e-05 |
| C16U G37A | 7.36e-05 ± 1.1e-05 | 0.000108 ± 1.3e-05 | 0.000713 ± 7.9e-05 | 0.00262 ± 0.00044 | 0.00123 ± 0.00015 |
| G51A G62C C67A | < 1e-05 | – | – | < 1e-05 | – |
